Measurements published in US20150125386A1, “HUMANIZED ANTI-CEACAM5 ANTIBODY AND USES THEREOF” (IMMUNOMEDICS, INC., priority 2013, published 2015).

What was measured:
[1] = test system: GW-39 human colonic tumor; assay: In vivo therapy of lung metastases of GW-39 human colonic tumors in nude mice; settings: 250 μg, q4d×8, therapy initiated 14 days after i.v. tumor injection
Experimental: FIG. 3. Survival curves of hMN14-CL-SN-38 treated mice bearing GW-39 lung metastatic disease.
Alternative immunoconjugates, comprising different linkers between the antibody and the SN-38, were prepared as disclosed in U.S. Pat. No. 7,591,994, the Figures and Examples section of which are incorporated herein by reference. A lung metastatic model of colonic carcinoma was established in nude mice by i.v. injection of GW-39 human colonic tumor suspension, and therapy was initiated 14 days later. Specific anti-CEACAM5 antibody conjugates, hMN14-CL1-SN-38 and hMN14-CL2-SN-38, as well as nontargeting anti-CD22 antibody control conjugates, hLL2-CL1-SN-38 and hLL2-CL2-SN-38 and equidose mixtures of hMN14 and SN-38 were injected at a dose schedule of q4d×8, using different doses. […] The dose-responsiveness of therapeutic effect of conjugated antibody was also observed.

[2] = test system: Capan 1 human pancreatic carcinoma; assay: In vivo therapy of athymic nude mice bearing Capan 1 pancreatic tumor xenografts with antibody-CL2A-SN-38 conjugates; settings: Capan 1 s.c. xenograft, FIG. 1
Experimental: FIG. 1. In vivo therapy of athymic nude mice, bearing Capan 1 human pancreatic carcinoma, with antibody-CL2A-SN-38 conjugates.
(§1) The efficacy of drug-conjugated Class III anti-CEA antibody was investigated. Immunoconjugates comprising antibody-SN-38 conjugates were prepared as discussed in U.S. Pat. No. 7,999,083, the Figures and Examples sections of which are incorporated herein by reference. Immune-compromised athymic nude mice (female), bearing subcutaneous human pancreatic or colon tumor xenografts were treated with either specific CL2A-SN-38 conjugate or control conjugate or were left untreated. The therapeutic efficacies of the specific conjugates were observed.

[3] = test system: LS174T human colon adenocarcinoma; assay: Biodistribution of 131I-labelled humanized MN-14 IgG in nude mice bearing human colon cancer; assay type: in vivo
Experimental: The biodistribution of labeled humanized MN-14 IgG in nude mice bearing human colon cancer was determined. For radiolocalization studies, at 4-5 weeks female athymic mice (nu/nu, Harlan, Indianapolis, Ind.) were given s.c. 0.2 ml of a 10% suspension of LS174T human colon adenocarcinoma prepared from a xenograft serially propagated in an athymic mouse (Sharkey et al., Cancer Res., 50: 828-34 (1990)). After waiting 2 weeks for tumor development, the mice were injected i.v. with 20 μCi (about 2 μg) of ^131I-labelled humanized MN-14 antibodies. Groups of 4-5 mice were sacrificed at intervals thereafter, and radioactivity localized in tissues. […] Tumor:nontumor ratios were excellent.

metastatic colon cancer = assay: Treatment of metastatic colon cancer with P2PDox conjugate of Class III anti-CEA antibody (Example 11); assay type: in vivo, human; settings: 8 weeks from treatment begin
Experimental: A prodrug form of 2-pyrrolinodoxorubicin, referred to herein as “P2PDox”, is prepared and conjugated to the hMN-14 antibody as disclosed in U.S. patent application Ser. No. 14/175,089, the Figures and Examples sections of which are incorporated herein by reference.
A person with metastatic colon cancer (3-5 cm diameters) to their left and right liver lobes, as well as a 5 cm metastasis to their right lung, and an elevated blood CEA value of 130 ng/mL, is treated with a 150 mg dose of hMN-14 Class III anti-CEA antibody conjugated to P2PDox at 4 drug molecules per IgG, administered by slow intravenous infusion every other week for 4 doses. […] At the same time, their blood CEA titer is reduced to 30 ng/mL. Repeated courses of therapy continue as their neutropenia normalizes.

[4] = compared with rituximab; cited from earlier work
[5] = test system: advanced metastatic colon cancer; assay: Therapy of advanced metastatic colon cancer with anti-CEACAM5 immunoconjugate (Example 9); assay type: in vivo, human; settings: 12 mg/kg every other week, irinotecan-unresponsive
Experimental: The patient is a person who fails prior therapies for metastatic colon cancer. The first line of therapy is FOLFIRINOX+AVASTIN® (built up in a stepwise manner) starting with IROX (Irinotecan+Oxaliplatin) in the first cycle. […] This is followed by surgery to remove tumor tissue. […] This leads to the initiation of the second line regimen (FOLFIRI+Cetuximab). […] Then RF ablation of liver metastases is performed, followed by continuation of adjuvant chemotherapy with FOLFIRINOX+Cetuximab, followed by maintenance Cetuximab for approximately one year. […] This leads to a wedge resection of the lung nodules. Subsequently FOLFIRI+Cetuximab is restarted and continued. Later CT scans show both lung and liver metastases.
At the time of administration of the hMN-14-SN-38 immunoconjugate, the patient has advanced metastatic colon cancer, with metastases of both lung and liver, which is unresponsive to irinotecan (camptothecin). The hMN-14-SN-38 immunoconjugate is administered at a dosage of 12 mg/kg, which is repeated every other week.
The effect of the antibody moiety in improved targeting of the camptothecin accounts for the efficacy of the SN-38 moiety in the cancer that had been previously resistant to unconjugated irinotecan.

[6] = test system: stage-IV metastatic colonic cancer; assay: Therapy of advanced colon cancer patient refractory to prior chemo-immunotherapy with IMMU-130 (Example 4); assay type: in vivo, human
Experimental: Thereafter, they were given courses of cetuximab, either alone or combined with FOLFIRI (leucovorin, 5-flurouracil, irinotecan) chemotherapy during the next year or more. […] The index lesions chosen by the radiologist for measuring tumor size change by computed tomography were the mid-lobe of the right lung and the liver metastases, both totaling 91 mm as the sum of their longest diameters at the baseline prior to IMMU-130 (anti-CEACAM5-SN-38) therapy.
This patient received doses of 16 mg/kg of IMMU-130 by slow IV infusion every other week for a total of 17 treatment doses.

gastric adenocarcinoma = assay: Gastric cancer patient with stage IV metastatic disease treated with IMMU-130 (Example 6); assay type: in vivo, human
Experimental: The patient is a person who sought medical attention because of gastric discomfort and pain related to eating for about 6 years, and with weight loss during the past 12 months. […] The patient has their gastric tumor resected, and then has baseline CT measurements of their metastatic tumors.
The patient is then given experimental therapy with IMMU-130 (anti-CEACAM5-SN-38) on a weekly schedule of 8 mg/kg. […] The patient then undergoes a CT study to measure their metastatic tumor sizes and to view the original area of gastric resection.

[7] = test system: LS174T human colon carcinoma; assay: In vivo therapy of athymic nude mice bearing LS174T colon carcinoma xenografts; settings: LS174T s.c. xenograft, FIG. 2
Experimental: FIG. 2. In vivo therapy of athymic nude mice, bearing LS174T human colon carcinoma, with hMN-14-CL2A-SN-38 conjugate.
as §1

rectal carcinoma = assay: Continuous infusion of labetuzumab-SN-38 in patient with liver metastases of rectal carcinoma (Example 8); assay type: in vivo, human
Experimental: The patient was previously resected for a rectal carcinoma and receives pre- and post-operative radiochemotherapy as per conventional treatment. […] They then receive a repeat continuous infusion therapy 5 weeks later, now for 3 weeks, at 1 mg/kg.

[8] = test system: metastatic colonic cancer (Stage IV); assay: Therapy of a patient with advanced colonic cancer with IMMU-130 (Example 5); assay type: in vivo, human
Experimental: This patient is a person initially diagnosed with metastatic colonic cancer (Stage IV). […] Their baseline CEA titer just before this therapy is 15 ng/mL. […] The patient continues their investigational therapy.

[9] = 131I-labelled, i.v., nude mice bearing LS174T

hLL2-CL1-SN-38: nontargeting anti-CD22 antibody control conjugate
median survival [1]: 56 days

hRS7-CL2A-SN-38
therapeutic efficacy [2]: better efficacies than control hA20-CL2A-SN-38 conjugate

hMN-14: humanized Class III anti-CEA (anti-CEACAM5) antibody; heavy and light chains SEQ ID NO:1 and SEQ ID NO:2
time of maximum tumor accretion [3, 9]: ≤ 2 days
tumor accretion of the antibody [3, 9]: excellent tumor accretion
Tumor:nontumor ratios ([3]; 131I-labelled, nude mice bearing LS174T): excellent
uptake by the spleen ([3]; compared with mMN-14): higher uptake of hMN-14 by the spleen than there was of mMN-14
blood clearance ([3]; compared with parental mMN-14): more rapid than the parental mMN-14 antibody

hMN-14 Class III anti-CEA antibody conjugated to P2PDox
reduction of the total mean diameters of the 3 target lesions (CT) (metastatic colon cancer; 150 mg every other week for 4 doses): 25%
response by RECIST1.1 criteria (metastatic colon cancer): good stable disease response
blood CEA titer (metastatic colon cancer; 130 ng/mL before): 30 ng/mL

hLL2-CL2-SN-38: nontargeting anti-CD22 antibody control conjugate
median survival [1]: 77 days

veltuzumab: humanized IgG1 antibody against CD20
immunogenicity in subjects [4]: less immunogenic in subjects than rituximab

IMMU-130
response by RECIST criteria [5]: partial response
side effects (nausea, diarrhea, fatigue) ([6]; 16 mg/kg IV every other week, after the first treatment and treatments 4 and 5): grade 1 nausea, diarrhea and fatigue
duration of fatigue after the first infusion ([6]; 16 mg/kg every other week): 2 weeks
duration of nausea, diarrhea and occasional vomiting ([6]; 16 mg/kg every other week): 2 to 3 days
alopecia ([6]; 16 mg/kg every other week, after treatment 3): grade 2
change of sum of index lesions (CT) from baseline ([6]; after 4 treatments, 16 mg/kg every other week): 28.6%
reduction of sum of index lesions (CT) from baseline ([6]; after 8 treatments): 40.6%
response according to RECIST criteria ([6]; after 8 treatments): partial remission
anti-labetuzumab antibody in blood ([6]; after 16 doses): none was detected
plasma CEA titer ([6]; after the third therapy dose, baseline 12.6 ng/mL): 2.1 ng/mL
index lesions less than baseline (CT) ([6]; another 2 months after the 8-treatment evaluation): 31.9%
diarrhea (gastric adenocarcinoma; 8 mg/kg weekly, after 3 weeks): grade 1
neutropenia (gastric adenocarcinoma; 8 mg/kg weekly, after 3 weeks): grade 2
decrease of the sum of the metastatic lesions (CT, RECIST) vs. baseline (gastric adenocarcinoma; 8 mg/kg weekly, first CT study on therapy): 23%
decrease of the sum of all metastatic lesions (CT) (gastric adenocarcinoma; after a total of 13 infusions): 41%
response by RECIST (gastric adenocarcinoma; after a total of 13 infusions): partial response
CEA titer (gastric adenocarcinoma; at first CT study, pre-IMMU-130 baseline 14.5 ng/mL): 7.2 ng/mL
blood CEA (gastric adenocarcinoma; last measurement, after maintenance therapy every third week): 4.8 ng/mL
therapeutic efficacy [7]: more efficacious than non-treatment
liver metastases by CT (rectal carcinoma; continuous infusion 2 mg/kg over 17 days, then 1 mg/kg for 3 weeks, three weeks later): 1 of the liver metastases has disappeared
blood CEA titer (rectal carcinoma; three weeks after second infusion, 6.3 ng/mL before): 2.4 ng/mL
nausea and vomiting (rectal carcinoma; while under therapy): grade 2
neutropenia (rectal carcinoma; while under therapy): grade 2
therapeutic efficacy [2]: better efficacies than control hA20-CL2A-SN-38 conjugate
tolerability ([8]; 6 mg/kg twice weekly for 2 weeks, one week rest, more than 20 doses): tolerated very well, without any major hematological or non-hematological toxicities
shrinkage of the index tumor lesions ([8]; 8-week evaluation): 21%
ascites and pleural effusion ([8]; 13 weeks): both decrease
shrinkage of the index tumor lesions ([8]; 13 weeks): 27%
plasma CEA titer ([8]; within 2 months of therapy, baseline 15 ng/mL): 1.3 ng/mL
